This is an account of results in US20230174596A1 (published 2023).

T1: hVEGF-A (8-109) (human, UniProt P15692 214-315)
T1 construct: residue numbers count on mature VEGF-A; dimer
T1 sequence (looked up): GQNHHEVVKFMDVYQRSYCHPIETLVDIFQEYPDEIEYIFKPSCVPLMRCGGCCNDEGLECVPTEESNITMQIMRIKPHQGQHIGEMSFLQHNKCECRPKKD

This experiment addresses T1, hVEGF-A (8-109). Put plainly: spot phage ELISA. A general note: In an ELISA, binding on a coated surface is turned into a signal by an enzyme label.
Consider GCQVMRPFWGCKQDSDCLAGCVCHWYQSCG (designed binder) [VEGF_CKP9.L1.7], for which the ELISA worked out at 1.5 and the S/N was determined as 8.9.
With GCNIMLPFWGCNRDFLCLAGCVCQYYQSCG (designed binder) [VEGF_CKP9.54.48], the ELISA was determined as 2.5 and the S/N came to 34.9.
GCQVLQPSWGCKQDSDCLAGCVCHWYQSCG (designed binder) [VEGF_CKP9.L1.79] gave an ELISA of 1.2 and a S/N of 10.
The matching figures for GCNPMLPLWGCKQDSDCLAGCVCHWYQSCG (designed binder) [VEGF_CKP9.L1.78]: 3 and 25.1.
GCRLLEPSWGCKQDSDCLAGCVCQWYQSCG (designed binder) [VEGF_CKP9.72] registered an ELISA of 0.6 and a S/N of 10.
The matching figures for GCNIMLPFWGCGTNFLCLAGCVCQYYQSCG (designed binder) [VEGF_CKP9.54.31]: 2.3 and 32.5.
GCHLLLPLWGCKQDSDCLAGCVCRWYHSCG (designed binder) [VEGF_CKP9.76] yielded an ELISA of 1.3 and a S/N of 15.5.
Regarding GCQVMQPAWGCKQDSDCLAGCVCHWYQSCG (designed binder) [VEGF_CKP9.L1.8], the ELISA worked out at 1.2 and the S/N amounted to 12.8.
As for GCNIMLPFWGCGLDYDCLAGCVCQYYQSCG (designed binder) [VEGF_CKP9.54.2], the ELISA was 0.1 and the S/N worked out at 26.
The matching figures for GCNIMLPFWGCQADYACLAGCVCQYYQSCG (designed binder) [VEGF_CKP9.54.14]: 2.5 and 23.5.
For GCKLFEPLWGCKQDSDCLAGCVCRWYESCG (designed binder) [VEGF_CKP9.96], the ELISA amounted to 1.2 and the S/N was 18.4.
As for GCDRMQPYWGCKQDSDCLAGCVCQWYKSCG (designed binder) [VEGF_CKP9.11], the ELISA is 1.1 and the S/N was found to be 14.1.
GCNLMHPFWGCKQDSDCLAGCVCHWYQSCG (designed binder) [VEGF_CKP9.51] yielded an ELISA of 1 and a S/N of 11.
GCQLMHPFWGCKQDSDCLAGCVCHWYRSCG (designed binder) [VEGF_CKP8] had an ELISA of 3.9 and a S/N of 59.4.
In turn, GCNIMLPFWGCSRDFDCLAGCVCQYYQSCG (designed binder) [VEGF_CKP9.54.44] came in with an ELISA of 2.4 and a S/N of 34.4.
With GCNIMLPFWGCGKELNCLAGCVCQYYQSCG (designed binder) [VEGF_CKP9.54.69], the ELISA was determined as 2.5 and the S/N is 21.7.
Molecule GCQLMQPFWGCKQDSDCLAGCVCRWYNSCG (designed binder) [VEGF_CKP9.L5.7] returned an ELISA of 1.4 and a S/N of 18.9.
For GCNIMLPFWGCGPDLQCLAGCVCQYYQSCG (designed binder) [VEGF_CKP9.54.59], the ELISA is 2.3 and the S/N amounted to 35.4.
As for GCQLLEPMWGCKQDSDCLAGCVCHWYNSCG (designed binder) [VEGF_CKP9.9], the ELISA stood at 1.1 and the S/N turned out to be 19.7.
In the case of GCNIMLPFWGCGPELNCLAGCVCQYYQSCG (designed binder) [VEGF_CKP9.54.12], the ELISA was 2.4 and the S/N was found to be 38.8.
In the case of GCDVLQPFWGCKQDSDCLAGCVCHWYQSCG (designed binder) [VEGF_CKP9.2], the ELISA was 2.4 and the S/N was 31.1.
In the case of GCQLMQPFWGCKQDSDCLAGCVCRWYHSCG (designed binder) [VEGF_CKP9.L5.43], the ELISA came to 0.9 and the S/N was found to be 13.6.
In turn, GCKLLQPMWGCKQDSDCLAGCVCRWYQSCG (designed binder) [VEGF_CKP9.14] registered an ELISA of 2 and a S/N of 30.1.
The molecule GCNIMLPFWGCGWSMDCLAGCVCQYYQSCG (designed binder) [VEGF_CKP9.54.76] returned an ELISA of 2.7 and a S/N of 42.2.
Consider GCNIMLPFWGCGQSFECLAGCVCQYYQSCG (designed binder) [VEGF_CKP9.54.1], for which the ELISA stood at 2.4 and the S/N is 29.9.
As to GCQLMQPFWGCKQDSDCLAGCVCHWYQSCG (designed binder) [VEGF_CKP9.L5.18], the ELISA turned out to be 1.6 and the S/N was 20.4.
GCPAIQNWKEHPCKQDSDCLAGCVCSWWPSLCG (designed binder) [VEGF_CKP5] displayed an ELISA of 1.9 and a S/N of 28.4.
The matching figures for GCNIMLPFWGCGYDLQCLAGCVCQYYQSCG (designed binder) [VEGF_CKP9.54.87]: 2.4 and 26.1.
Regarding GCNIMLPFWGCGKDFHCLAGCVCQYYQSCG (designed binder) [VEGF_CKP9.54.56], the ELISA was found to be 2.3 and the S/N is 35.8.
On to GCQISQPFWGCKQDSDCLAGCVCHFYNSCG (designed binder) [VEGF_CKP9.3], for which the ELISA is 1.6 and the S/N stood at 24.5.
Molecule GCNIMLPFWGCSGDFACLAGCVCQYYQSCG (designed binder) [VEGF_CKP9.54.64] came in with an ELISA of 2.2 and a S/N of 22.4.
The molecule GCQRTQPFWGCKQDSDCLAGCVCRWYQSCG (designed binder) [VEGF_CKP9.22] yielded an ELISA of 1.2 and a S/N of 17.2.
Molecule GCNIMLPFWGCGVDYLCLAGCVCQYYQSCG (designed binder) [VEGF_CKP9.54.16] displayed an ELISA of 2.4 and a S/N of 30.8.
GCKKWQWWYMCKQDSDCLAGCVCYPWTECG (designed binder) [VEGF_CKP4]: the ELISA was 2.6 and the S/N is 35.3.
With GCALLQPLWGCKQDSDCLAGCVCRWYNSCG (designed binder) [VEGF_CKP9.69], the ELISA was 1 and the S/N was found to be 14.3.
As for GCPRILMRCKQDSDCLAGCVCGPNGFCG [EETI-II], the ELISA was determined as 0.01 and the S/N is 1.11.
GCHRLQPLWGCKQDSDCLAGCVCHWYQSCG (designed binder) [VEGF_CKP9.L1.19] came in with an ELISA of 1.4 and a S/N of 11.6.
On to GCKIMQPLWGCKQDSDCLAGCVCLWYDSCG (designed binder) [VEGF_CKP9.47], for which the ELISA was 1 and the S/N is 14.6.
GCNPMLPFWGCKQDSDCLAGCVCHWYQSCG (designed binder) [VEGF_CKP9.L1.57] returned an ELISA of 3.7 and a S/N of 31.8.
Consider GCNVLLPLWGCKQDSDCLAGCVCHWYQSCG (designed binder) [VEGF_CKP9.L1.64], for which the ELISA came to 2.3 and the S/N amounted to 19.9.
The matching figures for GCQLLQPLWGCKQDSDCLAGCVCRWYQSCG (designed binder) [VEGF_CKP9.71]: 1 and 16.5.
As for GCHLFEPLWGCKQDSDCLAGCVCHWYQSCG (designed binder) [VEGF_CKP9.L1.2], the ELISA was found to be 1.6 and the S/N came out at 12.5.
The molecule GCDIMQPLWGCKQDSDCLAGCVCHWYQSCG (designed binder) [VEGF_CKP9.L1.68] came in with an ELISA of 2 and a S/N of 23.2.
The matching figures for GCRTPWEPHDITCKQDSDCLAGCVCGPNGFCG (designed binder) [VEGF_CKP11]: 4.1 and 57.5.
GCVTPWKPHWINCKQDSDCLAGCVCGPNGFCG (designed binder) [VEGF_CKP13]: the ELISA was 3.5 and the S/N worked out at 56.3.
Turning to GCNIMLPFWGCGWDQFCLAGCVCQYYQSCG (designed binder) [VEGF_CKP9.54.51], the ELISA came to 2.5 and the S/N was found to be 44.5.
On to GCDLMQPLWGCKQDSDCLAGCVCHWYQSCG (designed binder) [VEGF_CKP9.L1.76], for which the ELISA was 2.5 and the S/N was 17.4.
